According to the supplement of paper PMC12764529:

assay: folding stability dG unfold (combined trypsin and chymotrypsin); higher = more stable
Method: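 Folding stability of de novo designed mini-proteins (<80 aa, no Cys; designed by TrROS, TrMRF, ProteinMPNN and the joint model) was measured by cDNA display proteolysis with trypsin and chymotrypsin. Each protease was used at 11 concentrations in a threefold dilution series plus a no-protease condition. K50 was inferred by Bayesian fitting of sequencing counts, and dG unfold was derived against a sequence-predicted unfolded-state K50 (Tsuboyama et al. method). Sequences shown include variable-length N-terminal GS-type padding (SAGGSAGG...) inside a display construct carrying a PA tag. Rows were kept only if the AF2 dimer inter-PAE was >15, to exclude likely homo-oligomers.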

“SAGGSAGGSKMTVRIDEVHTHKHDGRRYLSVPLRFPDNGKPIDFHIPPDDLKNLKPGEEITIESAGGSAGGS [r12_382_TrROS]” and “SSLDDLSPEQAVDQAKFMVRMIRESRDNGKPEQYPKMINMLRRMASSAPPPDRKAVKEVLEEFKIPPEWFSA [r9_182_TrROS]” cannot be ordered by “folding stability dG unfold” value: under -4.18 kJ/mol for the first, under -4.18 kJ/mol for the second.

“SAGGGGMTVEPVAERRFPSGRRITFYRRELPTPTVLEDVVVEYPDGSVRTITVPVGEEAAAVAAVLASAGGS [r16_588_JUSTAS]” and “SAPPLPPDAVVETESEPVGVDPTENGTLTYYRRTVRVTLPDGSLTLESLVFRDPATGSSTSSVLRETALSAG [r14_293_JUSTAS]” cannot be ordered by “folding stability dG unfold” value: under -4.18 kJ/mol for the first, under -4.18 kJ/mol for the second.

“PINPEIAEKLKVAIANKLKEAGYKVKSVSISPLPDGTISGKVGDKTVTLPLPNGGTAGISVEAEKVSPEEAS [r1_31_TrMRF]” and “SAGGSAGGSAEEISPEGVATRTLPDGRTVELTQDPAKGTVTTTVYTPSGTPVSSSTTPVNPSAGGSAGGSAG [r3_447_JUSTAS]” cannot be ordered by “folding stability dG unfold” value: under -4.18 kJ/mol for the first, under -4.18 kJ/mol for the second.

Compared with “PIITVSSLEELKKAIKELVEKIVEEAKKAGYPDKKVIVSIPVVLIDEKTGKPKILPILIEIYPDGTVKIYGS [r1_316_TrMRF]”, “SAGGSAGGSAGGSMVTTKDPNSPVTYTLVPRPTPEELVVKTTTNPDGTPTVTLLPASLLSAGGSAGGSAGGS [r4_434_JUSTAS]” is lower in “folding stability dG unfold” value: over 25.1 kJ/mol for the first, under -4.18 kJ/mol for the second.

“SAGGSAGGSAGGIYEKAVEFAKAKGGKDIPVKIKYPDGSVKTLNVDDLPDLKSENVEIVPSAGGSAGGSAGG [r7_863_TrMRF]” and “SAGGEGEELIIPSSFPLEKIEELEKAHPDAKAEIVEINLRGPVLLPGGGVRPVPSFLKVRLYRREERSAGGS [r8_172_TrMRF]” cannot be ordered by “folding stability dG unfold” value: under -4.18 kJ/mol for the first, under -4.18 kJ/mol for the second.

“SAGGSAGGSAGGTISFPTSSGLIKVEDMTIEEAKEKLKKENPNAKVIKLPTPNVYLIEVKSAGGSAGGSAGG [r7_370_JUSTAS]” and “SAGGSAGGDNKPLRVRIRSPANGQKMKFKIKPDKIEPGKTIEIKHGDKPHTFNINPAQIDELEPSAGGSAGG [r6_461_TrROS]” cannot be ordered by “folding stability dG unfold” value: under -4.18 kJ/mol for the first, under -4.18 kJ/mol for the second.

“SAGGEFKLKREEDPDGERKITLEFPGWPYEVVIPKNAKDLPPGNPIYVRGGGGTRTMPIKDLLPELLNSAGG [r13_97_TrROS]” and “SAGGSAGGSQKITIEWHKPGAWRIRIPGNGRERHLPMDKPLEEIANTAEKKFPNIPVEIERVKSAGGSAGGS [r12_423_TrROS]” cannot be ordered by “folding stability dG unfold” value: under -4.18 kJ/mol for the first, under -4.18 kJ/mol for the second.

“SAGMTINNTGSVEELKKLPDVVEIEKEGNKYTIKMPGETVEVELNPPKPVPKGPPYTSESEKKKKSEKSSAG [r5_2_JUSTAS]” and “SAGGSAGGPPPLIVTIKLEHKREKPNGEPEKRKHEIIVDAPNEQADKLAKKMPPDNVEDVEIAKSAGGSAGG [r6_985_TrROS]” cannot be ordered by “folding stability dG unfold” value: under -4.18 kJ/mol for the first, under -4.18 kJ/mol for the second.

“SAGGSAGGSAGSPSEVKYSEEVLEEPLPGGVPYRLVVRTRTVLEGDKVVEEEEETELVLLSAGGSAGGSAGG [r11_35_JUSTAS]” and “SAGGSAGGSGSMNISPNVKKFTIKSTGTEEKAKEEAEKIKNSLPKNVPIEITFEPLDPKEFKKSAGGSAGGS [r12_744_JUSTAS]” cannot be ordered by “folding stability dG unfold” value: under -4.18 kJ/mol for the first, under -4.18 kJ/mol for the second.

“SAGGGSSMSPISDQQTSSSLPDGTTVTRTTTTYPTSVLVTTTTTDPATGAPTTTTTTYTTPGSSVAGSAGGS [r16_419_JUSTAS]” and “SAGGSAGGSAGMNKKVVATFTDPNSDTTTTLVGPEEAFKSQFPPETASYSLTTVPEEALLSAGGSAGGSAGG [r11_334_JUSTAS]” cannot be ordered by “folding stability dG unfold” value: under -4.18 kJ/mol for the first, under -4.18 kJ/mol for the second.

“SAGGSAGGSAGSMVLESEEPIPETGEPVLVKTTLSEEPGRERTIVTTYRDGKPLSTTVELSAGGSAGGSAGG [r11_631_JUSTAS]” and “SAGGSAGGSAMNPSEPYVTLTETVVEEAEEVVETFPGYGVYKYTETKLKTTVKVTTVPKSLLSAGGSAGGSA [r18_137_JUSTAS]” cannot be ordered by “folding stability dG unfold” value: under -4.18 kJ/mol for the first, under -4.18 kJ/mol for the second.

“SAGGSAGGSARDALKNIKHVEIEHNPPNNRGTIRIQPPNGKQIKFEFDSPNELLKKAGIEPSAGGSAGGSAG [r3_36_TrROS]” and “SAGPPEPITWKIRNPKNGKKRKIQIWQPDEQMAVQIRDPNDGKPRREIPMPLEEARDLLKSDGFEVEPVSAG [r5_291_TrROS]” cannot be ordered by “folding stability dG unfold” value: under -4.18 kJ/mol for the first, under -4.18 kJ/mol for the second.
